Data published in the NTF2 design screens of Basanta et al. (2020).

Assay: protease stability score; higher = more stable; yeast display proteolysis, trypsin and chymotrypsin;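 also: relative to predicted unfolded state with 0 unfolded-like and 1 meaning tenfold more protease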

Sequence	protease stability score
SEIEEELSSDRRDFIRAVLTGDFERHIEQMDPNVKLIFNGKEFHGREEVHRSWEELIDRWGVDKFEYRIEDMEHFPGHLMIHGTLNYNGKRERVIIYAVKFNGRWRVERVEIK	1.55
SEIEEESEEHLNLYMHAMHTGDWHTLERLADPNVRMDVNGQEHHGREEFVKVLVHMIEHLGIDHVRVKHLDLQGDKLHADTTEEVNGRRIHTILDVTKINGRWFITSLEIH	0.495
SEIEEFTRKLLEMFLEAFLTGDWKFLWELADPNVRLNVGDKHAHGMESSKHLLDEWLTEMRLRDMHVHSVHFQGEKRDNNGKEHRIYGDKVRLWDVHLHLVIVNGRLKEVNIEER	1.31
SEIEEHIKHMAHEILHNMLTGDWRRFSELADPNVRITVQQGDKVREYHGWESWKLLLDELRLHRFEFKDMHVQGNYAHIIGRQVGEFDGVRQDRDIEIIHVVVNGRIKQVIVHVE	1.86
SEIEELMKISLREFLHSSETGDEEHHNRYADPNVRLEIGDKTLIGWEALEHLLEHWKREAGIEKIELHIHVTRIHVQGEKLEFDGHLEVRQGDKVNHVKVTLVITKIDGKWVLHSVVFI	0.367
SEIEELVERAEKEHLRTLMTGDWRLFEHNLDPNTKLELDYDGRKIERHGRRHMSHYLKELFKSLGIKHMHLEDSHIQGDKLELHLHFHIGDKTRNVIIIVRKVNGQWIVETLIVHEH	0.829
SEIEEQVEEAYRLILEMLHTGDEHTMHELIDPHVRHRIDGQTYHGREFLIKWLVKLREDWGVEKISVKLKFITIIGDFALVVVDIHINGVKLKNHTLATKVNGRWRDHTVNIEHI	0.637
SEIEERVYRVVETFWMALRTGDEETLDDLLDPNVKLDIDGKEFHGREKYKEFLELFKGVTVESVEFRDSKISGEKAIIHVHVTLRQGDKEEHKSTELVLYKINGRWIIEHVRLK	2.21
SEIEETTRQASEFNLHSFRTGDEKMVHELADPHVRTDFNGKRLHGRESLTKELDKLLKDLGVDHVRIEHVNIYNGRVDIIMRVEVGDKEWKITIIAIKIDGKWKLESIEME	0.132
SEIEHNLRLAEELLEKVTQTGNEELLHDLIDPNVRFYINGRDFVGREKNIKVFRSWGIDRVHFESEHIDIQGNKINFHGQINVNGKSMDTQIIAVKVNGRWLIKESWVD	0.565
SEIEHVVKRAIKIFIEVLETGDWELMWRLLDPHVRIEVGNKEKHGRHTIEEMIRRVDHIHINERQIHDIEIQGDKVHLHIHLNVEERVGDKRLNFEFELHIIAEKVNGRWIVRSVTIK	1.62
SEIEKDAKDALKWFVDTTRTGDEDLWLRLLDPHVRVIIGDKEYHGREESEKLIRHLSDLFGVDKVEVILNLERIHIQGNKIDVKGKLEVRQGNYTDDREIEMVMIKVNGRWFIKYEVIK	1.18
SEIEKESEKIWKIWFHNLETGNWREIARLFDPHARWRELVDGREVNIVGREEVVRLLSENSEHLRLDDFRETSVRVIGDFVRSDVEMVGTVDGQHERRRVEVIIVTINGRLHSITITHL	1.15
SEIEKLLIDWLEHMVRAHKTGDWQNLLNMLDPHTRLNINGQHNIGRDKLTHLIREEEDRFGVDNIELHLHLEDIDIQGEKVNMKVQRHVNVNGREYTDEVELIIVKINGRWLLESIHVH	0.932
SEIEKMFHIALKLWVRTMKTGDFEDLLRLLDPNWRLEVNGRTHHGREELEHEIRELGIDQFHLHHIEHKEFLVQGEKITIDGRINGEFNGVQYNTRVIIIAKKINGRWVLHSEEIK	1.37
SEIERDAREFLRVLLEHLHTGDEDDLARLADPHVLIDIDGREIVGRELFREIWHEMGVNHTEYKDLDIQGNKLHIHINVNVNGKVRSLRIVVRKVNGRWFIEREHYE	1.52
SEIERDVHELIKEVSELTHTGNEEHSKMLLDPNYRVEIGDKTIHGRHLVSHWIKQMRSDITVEIREVRLIDGRLLADIRFVVRIRFDGVELHIEERRVLFWLKVDGQWIIESQRVH	0.827
SEIERESKIFSKIEKHVWETGDEKILSEMADPHARIEIGDKEHHGREEFEKVAHEIVEFFPNMRFRVEHMDVQGNKVDLDTRLHFENHSHRYQVISLKFNGRWLIKSVKIE	1.08

Sequence	protease stability score
SEIERLLEEWMELVIHSWLTGNEELFTRMFDPNTRLEVEVGDKHDRHIGREEANKWMETLRREIRIEDIEIKEVRIFDGVAHNDGTLHRRVGDKKDYVRVRLILIIYNGKIHHVKIIVR	1.03
SEIETILEKVLRELEHRKETGDEESFERYADPNVRMSVDGKDIHGREEVLRSWLETWKLMGVDHSHLHVTDLRIIGNKLEIDGIVRFNVGDKIVHRHSRLIMLKINGRWMIKQVEIH	1.22
SEIHDIARKMMNIVRRLLHTGDEDKWLDLADPDVRIHINGRDFIGRELWVQIYRELGVDHLDLKIERVEIVDGVIILHGTLDIHYGDKTHEIEINIFIRKVNGRWRLKLEHHK	1.71
SEIHDLITTMSRLFWDVIRTGDFEALEKLLDPHTRFEFLIGDKTEEYVGRHNVVRAIMDIWERLGIDHMHLKNVRYQGEKSDIDTEMHFDGRTFDTKIIIVVIDGKLHNVSIEFR	1.39
SEIHELAILVLKWLLDSMSTGDEESLRRLLDPHTRIHIDGKDLHGRHFLERILQEIRHEVKEYHIRDVRDINGVVTLDAHVRGNEYFDGRNHEHRTDTRLIIDKINGRWRIRELKFE	1.12
SEIHRDVEEFMKRFDRDLETGDEKILEKLVDPDVKTIVNGKIFHGRETFIKLMLTIFKEMRNEHVELQSLEVQGNKAHAETRVRLTIGDWTFYLRTELHLEKYDGRWRFHSVTIE	1.93
SEIKEEMDEVSELWQRALETGDEHEVLKLMDPHARIDFDGVDHVGWREVTKSLKHMRIDHIKIRHITVIGNKIDIDGEVNMTVNGQERQETVHIELIVVNGRIRHIRIHLV	0.396
SEIKENLHRFFERWQEVLRTGDERHIRDMADPNVRLDVNGKEIHGRELFANWIREHIERVDHISVHIHDMDIYGNKAKIRGELELDQGDKKHHLDLEIVTTKVDGKWILRSVHVR	2.12
SEINERTERLMKWLLHAILTGDEDLLSTLADPNVRVIVGDKSVIGMESWYRLFEEELRHLGIKHMQLDPRHVDTQGDKARVETRLRVWVDGVELTHETRLHLDVVNGRITKISIRIH	1.16
SEIQDISDLAFELIWRSLNTGDEHMLLELLDPDARTHVNGKTFHGRESAVHLFRYLLTLMGIDHIHIEDFKIEFQGDKVIIRMTTRSHQGDKEFHTRFLIIVRKVDGRWINEEISIHVE	0.937
SEIQHELSEMMKIVIHQFLTGDEEEFRHLVDPNVKFIFNGRLLIGWKSLSDFLKEHLERVDHWHVEIKRVRVYDGRLDISGRLRLVQGDKEHNLDVRMHLETIDGKITSVEIRVH	1.28
SEIREETQRVIEEFLRNHKTGDESLFHELADPNARLHFHQGDKRLDFIGREHVLEFWSRVSKELGVDHVELKDHKLQGDKMILHIESEVNGRRMIIIDISDKIDGRWVLHTLHIHVE	0.466
SEIWHLAENLSHLWMHKILTGDEDSIRNLLDPNARVHVNGKEVHGREETVKFMRHRVDEMGVDHMHFELKRFEVQGNYAIHHGTLIIHVDGREIRIESTIHLLKVNGRWLITDSSER	0.845
SEKDDFLEQLQKLWHEILVTGDEHRLKKLADPDMRFIYGDFESIGREEFLQMMRDMLREIRITHIELRTFDAYDGQLIILTTQHVSIGDKRIELTVHLFWIKVDGKWKLRRLKFE	1.79
SEKDDHALRVLEEYLHLFLTGNEEVMERLVDPHVRFIYGDKEFHGRELMIRWIREEREQYDHIHWEIRHFESQGDKAHSEVELRIRQGDKRIHVDMHIHIEVVNGRWKRIEVRER	1.78
SEKDELLDEILEKLRHDVETGNERLIRKNLDPHVKTDFNGRELHGMDLALRVWREHHEKVKNIRLEIKSVESVDGVVIIHMHVEIDGRHLDVILRWFVVNGRVKSVEIEIK	0.232
SEKDERVHELLRHVEHALRTGDWEEMVKLADPHVRVIFNGKTLHGREMMNRFWEHFGADHIRIRDEDDYNGVVIVHIETVVGDKHHHVHIISEKIDGKWTMRELSIE	0.933
SEKDQALTEMLEIFLQVHRTGNEEDMHRLADPNARSVYNGQDLHGWEHVFNIMRRIDHIHHVTVKRVEYFDGRVSLDGHINIEIGDKSYHIDISISLRKVDGQWHIESIEFI	0.721
